“And” between values parts separate entries of the source, which are not always exact repeats. Equal values may be shown once.
T1: human isoleucine zipper-CD40L (IZ-hCD40L) (human, UniProt P29965 113-261)
T1 sequence: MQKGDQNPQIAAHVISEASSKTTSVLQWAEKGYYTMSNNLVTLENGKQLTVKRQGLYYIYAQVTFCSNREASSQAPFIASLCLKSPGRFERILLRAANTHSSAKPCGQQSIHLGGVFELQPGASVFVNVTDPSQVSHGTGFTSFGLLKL


Molecular target: T1, human isoleucine zipper-CD40L …
Experiment: cell-based or functional assay

Row | hIZCD40L-driven Human B Cell Proliferation EC50 | Binder
1 | 79 nM and 76 nM | BMS2h-572-12 (other) VH: EVQLLESGGGLVQPGGSLRLSCAASGFTFNWQLMGWARQAPGKGLEWVSGIEGPGDVTYYADSVKGRFTISRDNSKNTLYLQMNSLRAEDTAVYYCAKVGKESNSDYRGQGTLVTVSS
2 | 357 nM and 305 nM | BMS2h-572-22 (other) VH: EVQLFESGGGSVQPGGSLRLSCAASGFTFNWQLMGWVRQAPGKGLEWVSGIEGPGDVTYYADSVKGRFTISRDNSKNTLYLQMNSLRAEDTAVYYCAKVGKESNSDYRGQGTLVTVSS
3 | > 7000 nM | BMS2h-703 (other) VH: EVQLLESGGGLVQPGGSLRLSCAASGFTFYNYDMSWVRQAPGKGLEWVSGIDSMGLVTYYADSVKGRFTISRDNSKNTLYLQMNSLRAEDTAVYYCAKGSNASDWVVFDYWGQGTLVTVSS
4 | > 7000 nM | BMS2h-710 (other) VH: EVQLLESGGGLVQPGGSLRLSCAASGFTFNTYSMSWVRQAPGKGLEWVSWIDADGWVTYYADSVKGRFTISRDNSKNTLYLQMNSLRAEDTAVYYCAQTGHTFDYWGQGTLVTVSS
5 | > 7000 nM | BMS2h-706 (other) VH: EVQLLESGGGLVQPGGSLRLSCAASGFTFGSYKMLWVRQAPGKGLEWVSSITNSGTETYYADSVKGRFTISRDNSKNTLYLQMNSLRAEDTAVYYCAKSMYPDLEIVHFDYWGQGTLVTVSS
6 | > 7000 nM | BMS2h-730 (other) VL: DIQMTQSPSSLSASVGDRVTITCRASQDIKDWLHWYQQKPGKAPKLLIYFASGLQSGVPSRFSGSGSGTDFTLTISSLQPEDSATYYCQQHYSTPYTSGQGTKVEIKR
7 | 5800 nM | BMS2h-731 (other) VL: DIQMTQSPPSLSASVGDRVTITCRASQLISSHLDWYQQKPGKAPKLLVYDASELQSGVPSRFSGSGSGTDFTLTISSLQPEDFATYYCQQHRSLPFTFGQGTKVEIKR
8 | 600 nM | BMS2h-719 (other) VH: EVQLLESGGGLVQPGGSLRLSCAASGFTFKRYEMTWVRQAPGKGLEWVSSISSDGSFTYYADSVKGRFTISRDNSKNTLYLQMNSLRAEDTAVYYCAEPFTEFDYWGQGTLVTVSS
9 | 81 nM and 96 nM | BMS2h-719-203 (other) VH: EVQLLESGGGLVQPGGSLRLSCAASGFTFNSYEMMWVRQAPGKGLEWVSSISSDGSFTYYADSVKGRFTISRDNSKNTLYLQMNSLRAEDTAVYYCAEPFTEFDYWGHGTLVTVSS
10 | 57 nM and 60 nM | BMS2h-719-218 (other) VH: EVQLLESGGGLVQPGGSLRLSCAASGFTFKRYEMMWVRQAPGKGLEWVSSISSDGSFTYYAESVKGRFTISRDNSKNTLYLQMNSLRAEDTAVYYCAEPFTEFDYWGHGTLVTVSS
11 | 66 nM and 89 nM | BMS2h-719-214 (other) VH: EVQLLESGGGLVQPGGSLRLSCAASGFTFKRYEMMWVRQAPGKGLEWVSSISSDGSFTYYADSVKGRFTISRDNSKNTLYLQMNSLRAEDTAVYYCADPFTEFDYWGHGTLVTVSS
12 | 62 nM and 98 nM | BMS2h-719-213 (other) VH: EVQLLESGGGLVQPGGSLRLSCAASGFTFKRYEMMWVRQAPGKGLEWVSSISSDGSFTYYADSVKGRFTISRDNSKNTLYLQMNSLRAEDTAVYYCADPFTEMDYWGHGTLVTVSS
13 | 92 nM and 91 nM | BMS2h-719-215 (other) VH: EVQLLESGGGLVQPGGSLRLSCAASGFTFKRYEMMWVRQAPGKGLEWVSSISSDGSFTYYADSVKGRFTISRDNSKNTLYLQMNSLRAEDTAVYYCAEPFTELDYWGHGTLVTVSS
14 | > 7000 nM | BMS2h-702 (other) VH: EVQLLESGGGLVQPGGSLRLSCAASGFTFAEYEMMWARQAPGKGLEWVSRIAGNGSRTYYADSVKGRFTISRDNSKNTLYLQMNSLRAEDTAVYYCAIMLSHFDYWGQGTLVTVSS
15 | > 7000 nM | BMS2h-717 (other) VH: EVQLLESGGGLVQPGGSLRLSCAASGFTFSSYEMAWVRQAPGKGLEWVSRIEPDGSNTYYADSVKGRFTISRDNSKNTLYLQMNSLRAEDTAVYYCAKGPDNFTMFDYWGQGTLVTVSS
16 | 6400 nM | BMS2h-725 (other) VH: EVQLLESGGGLVQPGGSLRLSCAASGFTFSAYTMGWVRQAPGKGLEWVSLIGDRGSWTYYADSVKGRFTISRDNSKNTLYLQMNSLRAEDTAVYYCAEPSDPTKFDYWGQGTLVTVSS

Row | hIZCD40L-driven Human B Cell Proliferation EC50 | Binder
17 | > 7000 nM | BMS2h-725-9 (other) VH: EVQLLESGGGLVQPGGSLRLSCAASGFTFSAYTMGWVRQAPGMGLEWVSLIGDRGSWTYYADSVKGRFTISRDNSKNTLYLQMNSLRAEDTAVYYCAEPSDPTKFDYWGQGTLVTVSS
18 | > 7000 nM | BMS2h-725-2 (other) VH: EVQLLESGGGLVQPGGSLRLSCAASGFTFSAYTMGWVRQAPGKGLEWVSLIGDRGSWTYYADSVKGRFTISRDNSKNTLYLQMNSLRAEDTAVYYCAEPSDPTKFVYWGQGTPVTVSS
19 | > 7000 nM | BMS2h-725-19 (other) VH: EVQLLESGGGLVQPGGSLRLSCAASGFTFSAYTMGWVRQAPGKGLEWVSLIGDRGSWTYYADSVKGRFTISRDNSKNTLYLQMNSLRAEDTAVYYCADPSDPTKFVYWGQGTLVTVSS
20 | 6400 nM and 3500 nM and > 7000 nM | BMS2h-745 (other) VH: EVQLLESGGGLVQPGGSLRLSCAASGFTFDNTEMAWVRQAPGKGLEWVSGIIEDGNRTYYADSVKGRFTISRDNSKNTLYLQMNSLRAEDTAVYYCAKIRNLHWDVGRQFDYWGQGTLVTVSS
21 | > 7000 nM | BMS2h-746 (other) VH: EVQLLESGGGLVQPGGSLRLSCAASGFTFGSAEMGWVRQAPGKGLEWVSGISRPGQVTYYADSVKGRFTISRDNSKNTLYLQMNSLRAEDTAVYYCAKIRNLHWDVGRQFDYWGQGTLVTVSS
22 | > 7000 nM | BMS2h-745-2 (other) VH: EVQLLESGGGLVQPGGSLRLSCAASGFTFDNTEMAWVRQAPGKGLEWVSGISEDGNRTYYADSVKGRFTISRDNSKNTLYLQMNSLRAEDSAVYYCAKIRNLHWDVGRQFVYWGQGTLVTVSS
23 | > 7000 nM | BMS2h-745-9 (other) VH: EVQLLESGGGSVQPGGSLRLSCAASGFTFDNTEMAWVRQAPGKGLEWVSGITEDGNRTYYADSVKGRFTISRDNSKNTLYLQMNSLRAEDTAVYYCAKIRNLHWDVGRQFVYWGQGTLVTVSS
24 | > 7000 nM | BMS2h-745-14 (other) VH: EVQLLESGGGLVQPGGSLRLSCAASGFTFDNTEMAWIRQAPGKGLEWVSGITEDGNRTYYADSVKGRFTISRDNSKNTLYLQMNSLRAEDTAVYYCAKIRNLHWDVGRQFDYWGQGTLVTVSS
25 | > 7000 nM | BMS2h-745-1 (other) VH: EVQLLESGGGLVQPGGSLRLSCAASGFTFDNTEMAWVRQAPGKGLEWVSGITEDGNRTYYADSVKGRFTISRDNSKNTLYLQMNSLRAEDTAVYYCAKIRNLHWDVGRQFDYWGQGTLVTVSS
26 | > 7000 nM | BMS2h-745-13 (other) VH: EVQLLESGGGLVQPGGSLRLSCAASGFTFDNTEMAWIRQAPGKGLEWVSGIIEDGNRTYYADSVKGRFTISRDNSKNTLYLQMNSLRAEDTAVYYCAKIRNLHWDVGRQFDYWGQGTLVTVSS
27 | > 7000 nM | BMS2h-707 (other) VH: EVQLLESGGGLVQPGGSLRLSCAASGFTFETYRMSWVRQAPGKGLEWVSAIDQEGSATYYADSVKGRFTISRDNSKNTLYLQMNSLRAEDTAVYYCAKNSGTRPGLRFDYWGQGTLVTVSS
28 | > 7000 nM | BMS2h-712 (other) VH: EVQLLESGGGLVQPGGSLRLSCAASGFTFPEYEMKWVRQAPGKGLEWVSTITPSGGHTYYADSVKGRFTISRDNSKNTLYLQMNSLRAEDAAVYYCAIPLSSFDYWGRGTLVTVSS
29 | > 7000 nM | BMS2h-722 (other) VH: EVQLLESGGGLVQPGGSLRLSCAASGFTFTKYPMAWVRQAPGKGLEWVSGIDANGNRTYYADSVKGRFTISRDNSKNTLYLQMNSLRAEDTAVYYCAEGTWRRHFAIFDYWGQGTLVTVSS
30 | > 7000 nM | BMS2h-723 (other) VH: EVQLLESGGGLVQPGGSLRLSCAASGFTFDLYDMMWVRQAPGKGLEWVSSISDLGTLTYYADSVKGRFTISRDNSKNTLYLQMNSLRAEDTAVYYCAKNGFRVTSNDRRFDYWGQGTLVTVSS
31 | > 7000 nM | BMS2h-726 (other) VH: EVQLLESGGGLVQPGGSLRLSCAASGFTFDNYKMYWVRQAPGKGLEWVSSISEIGNLTYYADSVKGRFTISRDNSKNTLYLQMNSLRAEDTAVYYCAIALTRFDYWGQGTLVTVSS
32 | > 7000 nM | BMS2h-744 (other) VH: EVQLLESGGGLVQPGGSLRLSCAASGFTFKEHDMFWVRQAPGKGLEWVSGIGAEGVWTYYADSVKGRFTISRDNSKNTLYLQMNSLRAEDTAVYYCAEPTMSNGSQSRFDYWGQGTLVTVSS
